Measurements as given in publication PMC5737863, “Entirely enzymatic nanofabrication of DNA–protein conjugates”.

Tests used:
[1] = biological target: HER2 (UniProt P04626 23-652); experiment: bead pull-down, GFP fluorescence; aptamer conjugated to mVirD2-GFP; PBS, room temperature; Conjugation/EMSA: TKM buffer (50 mM Tris-HCl pH 8, 150 mM KCl, 1 mM MgCl2, 10% glycerol), 37 C, 1 h, 10% native PAGE; HER2 beads: PBS, room temperature, 15 min; conditions: protein: commercial; tags: Fc; label: GFP (via conjugated protein)
[2] = biological target: T1, mVirD2-GFP (Agrobacterium tumefaciens (from …, UniProt P06668 1-204)); experiment: denaturing PAGE shift; covalent conjugate; Conjugation/EMSA: TKM buffer (50 mM Tris-HCl pH 8, 150 mM KCl, 1 mM MgCl2, 10% glycerol), 37 C, 1 h, 10% native PAGE; HER2 beads: PBS, room temperature, 15 min; conditions: protein: recombinant; tags: N-terminal 6xHis
T1 sequence: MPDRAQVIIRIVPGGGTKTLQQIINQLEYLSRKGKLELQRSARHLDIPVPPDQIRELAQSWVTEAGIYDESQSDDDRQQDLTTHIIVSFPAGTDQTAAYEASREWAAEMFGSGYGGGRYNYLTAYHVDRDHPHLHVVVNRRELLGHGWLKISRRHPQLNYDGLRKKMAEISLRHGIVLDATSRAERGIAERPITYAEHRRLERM

[3] = biological target: T2, mVirD2 (Agrobacterium tumefaciens (from …, UniProt P06668 1-204)); experiment: denaturing PAGE and SDS-PAGE shift; covalent conjugate; Conjugation/EMSA: TKM buffer (50 mM Tris-HCl pH 8, 150 mM KCl, 1 mM MgCl2, 10% glycerol), 37 C, 1 h, 10% native PAGE; HER2 beads: PBS, room temperature, 15 min; conditions: protein: recombinant; tags: N-terminal 6xHis
T2 sequence: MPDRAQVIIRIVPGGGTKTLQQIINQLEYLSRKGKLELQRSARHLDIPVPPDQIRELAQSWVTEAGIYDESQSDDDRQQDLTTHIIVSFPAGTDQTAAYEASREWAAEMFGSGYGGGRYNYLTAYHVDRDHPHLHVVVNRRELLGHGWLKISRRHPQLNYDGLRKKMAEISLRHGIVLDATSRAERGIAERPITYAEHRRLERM

[4] = biological target: T2, mVirD2; experiment: EMSA; apparent Kd; 1 mM Mg2+; covalent conjugation; Conjugation/EMSA: TKM buffer (50 mM Tris-HCl pH 8, 150 mM KCl, 1 mM MgCl2, 10% glycerol), 37 C, 1 h, 10% native PAGE; HER2 beads: PBS, room temperature, 15 min; conditions: protein: recombinant; tags: N-terminal 6xHis; label: 3' Cy3
[5] = biological target: T2, mVirD2; experiment: EMSA; 1 mM Mg2+; higher conjugate yield than T1; Conjugation/EMSA: TKM buffer (50 mM Tris-HCl pH 8, 150 mM KCl, 1 mM MgCl2, 10% glycerol), 37 C, 1 h, 10% native PAGE; HER2 beads: PBS, room temperature, 15 min; conditions: protein: recombinant; tags: N-terminal 6xHis; label: 3' Cy3
[6] = biological target: T2, mVirD2; experiment: EMSA; non-covalent; no nicking; Conjugation/EMSA: TKM buffer (50 mM Tris-HCl pH 8, 150 mM KCl, 1 mM MgCl2, 10% glycerol), 37 C, 1 h, 10% native PAGE; HER2 beads: PBS, room temperature, 15 min; conditions: protein: recombinant; tags: N-terminal 6xHis; single-stranded

B1: HeA2_3 aptamer, nicked and conjugated to mVirD2-GFP (ssDNA)
DNA: CCAGTCAGTAGGGAAGAGAAGGACATATGATTCTAAAAGGATTCTTCCCAAGGGGATCCAATTCAAACAGC
modifications: 5' end covalently linked to mVirD2-GFP Tyr29
binding result [1]: binds

B2: MOSIC HeA2_3 with mVirD2 site (ssDNA)
DNA: GCTCAAATTACAACGGTATATATCCTGCCAGTCAGTAGGGAAGAGAAGGACATATGATTCTAAAAGGATTCTTCCCAAGGGGATCCAATTCAAACAGC
binding result [2]: binds | binding result [3]: binds

GCTCAAATTACAACGGTATATATCCTGCCAGTCAG (ssDNA) [T1 (VirTarget)]
Kd [4]: 468 ± 68 nM

GCTCAAATTACAACGGTATATATCCTGCCAGTCAG (XNA, phosphorothioate bonds at underlined bases (underline lost in text)) [PS-T1VirTarget]
binding result [5]: binds

B3: ss Cut site RNA (mixed)
DNA: GCTCAAATTACAACGGTATATATCCTGCCAGTCAG
modifications: DNA-RNA chimera; AT-rich binding sequence is DNA, cut site is RNA (bold lost in text)
binding result [6]: binds
